Target: HLA-A*02:01 MHC Class I complex (recombinant, biotinylated) (human)
Experiment: displacement of the FITC-labelled in-place peptide from 1 uM HLA-A*02:01; competitor: incoming peptide [..] at 20 uM with 10 mM GlyCha, 4 h at room temperature; FITC on streptavidin capture beads by flow cytometry

exchange efficiency: 1
Binder: GMGQKDSYV (modifications not checked) [EP3 … (SEQ ID NO: 1), FITC-labelled in-place peptide GMGQ{Lys(FITC)}DSYV]
